Data on one substance can be found in patent publication US20030092164A1.

The Kd is the concentration at which binding is half-saturated.

For test [1], the target named is TACI receptor. Put plainly: I^125-labeled ZTNF4 binding to baby hamster kidney cells transfected with a TACI expression vector; Scatchard analysis.
Test [2] has as its target Ztnfr12 (human). Nature of the test: I^125-labeled ZTNF4 binding to baby hamster kidney cells transfected with Ztnfr12; Scatchard analysis.

For the substance ZTNF4 (ligand), the dissociation constant Kd in test [1] turned out to be 1.25 nM; in test [2], 1 nM.
